Test results as given in patent publication US20260240820A1 (ION CHAT RESEARCH CORPORATE, published 2026).
Where no end group is shown, it is not given here.

B1: Human Type I taste receptor T1R3 (receptor, UniProt Q7RTX0 21-852, looked up)
chain: APLCLSQQLRMKGDYVLGGLFPLGEAEEAGLRSRTRPSSPVCTRFSSNGLLWALAMKMAVEEINNKSDLLPGLRLGYDLFDTCSEPVVAMKPSLMFLAKAGSRDIAAYCNYTQYQPRVLAVIGPHSSELAMVTGKFFSFFLMPQVSYGASMELLSARETFPSFFRTVPSDRVQLTAAAELLQEFGWNWVAALGSDDEYGRQGLSIFSALAAARGICIAHEGLVPLPRADDSRLGKVQDVLHQVNQSSVQVVLLFASVHAAHALFNYSISSRLSPKVWVASEAWLTSDLVMGLPGMAQMGTVLGFLQRGAQLHEFPQYVKTHLALATDPAFCSALGEREQGLEEDVVGQRCPQCDCITLQNVSAGLNHHQTFSVYAAVYSVAQALHNTLQCNASGCPAQDPVKPWQLLENMYNLTFHVGGLPLRFDSSGNVDMEYDLKLWVWQGSVPRLHDVGRFNGSLRTERLKIRWHTSDNQKPVSRCSRQCQEGQVRRVKGFHSCCYDCVDCEAGSYRQNPDDIACTFCGQDEWSPERSTRCFRRRSRFLAWGEPAVLLLLLLLSLALGLVLAALGLFVHHRDSPLVQASGGPLACFGLVCLGLVCLSVLLFPGQPSPARCLAQQPLSHLPLTGCLSTLFLQAAEIFVESELPLSWADRLSGCLRGPWAWLVVLLAMLVEVALCTWYLVAFPPEVVTDWHMLPTEALVHCRTRSWVSFGLAHATNATLAFLCFLGTFLVRSQPGCYNRARGLTFAMLAYFITWVSFVPLLANVQVVLRPAVQMGALLLCVLGILAAFHLPRCYLLMRQPGLNTPEFFLGGGPGDAQGQNDGNTGNQGKHE
notes: whole, on cells; Present on the cells as a T1R3/T1R3 homodimer or as a heterodimer with T1R2 or T1R1; also called TAS1R3; hT1R3

Assays:
[1] = target: B1; assay: fluorescence microscopy on SH-SY5Y cells
[2] = target: T1, Fluorescent Aβ1-40 peptide (fluorescent label; dye and position not stated); assay: fluorescence microscopy on cell surfaces
T1 construct: also called labeled Aβ1-40 peptide

Amyloid β peptide Aβ1-42 = target: T2, Amyloid β peptide Aβ1-42; assay: assay not described
T2 construct: Bought (Wako Pure Chemical Industries); also called Aβ42; amyloid β1-42 peptide
T2 sequence (peptide, as listed by the source): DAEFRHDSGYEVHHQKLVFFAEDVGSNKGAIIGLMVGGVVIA

T1 sequence (peptide, as listed by the source): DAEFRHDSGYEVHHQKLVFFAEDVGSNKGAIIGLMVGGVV

binding result [1] | binding result [2] | binding result (Amyloid β peptide Aβ1-42) | Binder
binds |  |  | GSNKGAIIGLM (also: fluorescent label, dye and position not given here, also called fluorescent Aβ25-35 peptide) [Fluorescently labeled Aβ25-35 peptide (FL-Aβ25-35)]
 | binds | binds | B1
